Laboratory results from US20230220095A1 (ALETA BIOTHERAPEUTICS, published 2023).
Values joined by “and” are separate entries in the source; they are usually repeats but may differ in a detail not shown here. Equal values may be shown once.

B1: anti-GPRC5D scFv-BCMA ECD-His fusion protein, construct 536 (other)
chain: QSVLTQPASVSGSPGQSLTISCTGTSNDVGAYKYVSWYQQYPGKAPKLILYDVFKRPSGVSNRFSGSKSDNTASLTISGLQAEDEADYYCFSLTSSNTYVFGTGTKVTVLGSRGGGGSGGGGSGGGGSLEMAQMQLVQSGAEVKKPGASVKVSCKASGYTFNRYAITWVRQAPGQGLEWMGWISAYNGNSHYAQKLQGRVTMTTDTSTGTAYMELRRLRSDDTAVYYCARMAYDSWGQGTLVTVSSGGGGSGGGGSMLQMAGQCSQNEYFDSLLHACIPCQLRCSSNTPPLTCQRYCNASVTNSVKGTNAHHHHHH
notes: scFv of construct 522 - linker - BCMA ECD - His; Tested as HEK supernatant; also called A536; anti-GPRC5D-BCMA fusion protein
B2: anti-GPRC5D scFv-BCMA ECD-His fusion protein, construct 537 (other)
chain: QSVLTQPPSASGTPGQRVTISCSGSRSNVGGNYVFWYQQVPGATPKLLIYRSNQRPSGVPDRFAGSKSGSSASLAISGLRSEDEADYYCATWDDSLSGFVFGTGTKVTVLGSRGGGGSGGGGSGGGGSLEMAEVQLVESGGGLVKPGGSLRLSCAASGFTFSDYYMSWIRQAPGKGLEWVSYISSSGSTIYYADSVKGRFTISRDNAKNSLYLQMNSLRAEDTAVYYCARGYGKAYDQWGQGTLVTVSSGGGGSGGSMLQMAGQCSQNEYFDSLLHACIPCQLRCSSNTPPLTCQRYCNASVTNSVKGTNAHHHHHH
notes: scFv of construct 523 - linker - BCMA ECD - His; Tested as HEK supernatant; also called A537; anti-GPRC5D-BCMA fusion protein
B3: anti-GPRC5D scFv-BCMA ECD-His fusion protein, construct 538 (other)
chain: SSELTQDPAVSVALGQTVRITCQGDSLRSYYASWYQQKPGQAPVLVIYGKNNRPSGIPDRFSGSSSGNTASLTITGAQAEDEADYYCNSRDSSGNPPVVFGGGTKLTVLGSRGGGGSGGGGSGGGGSLEMAQVQLVESGGGLVHPGGSLRLSCAASGFTFRSHSMNWVRQAPGKGLEWVSSISSDSTYTYYADSVKGRFTISRDNAKNSLYLQMNSLRAEDTAVYYCARSGGQWKYYDYWGQGTLVTVSSGGGGSGGGGSGGGGSMLQMAGQCSQNEYFDSLLHACIPCQLRCSSNTPPLTCQRYCNASVTNSVKGTNAHHHHHH
notes: scFv of construct 524 - G4Sx3 linker - BCMA ECD - His; also called A538; bridging protein #538
B4: anti-GPRC5D scFv-BCMA ECD-His fusion protein, construct 539 (other)
chain: QSVVTQPPSMSAAPGQQVTISCSGGNSNIERNYVSWYLQLPGTAPKLVIFDNDRRPSGIPDRFSGSKSGTSATLGITGLQTGDEADYYCGTWDSSLRGWVFGGGTKLTVLGSRGGGGSGGGGSGGGGSLEMAEVQLVESGGGLIQPGGSLRLSCAASGFTFSNYAMNWVRQAPGKGLEWVSTINGRGSSTIYADSVKGRFTISRDNSKNTLYLQMNSLRAEDTATYYCARYISRGLGDSWGQGTLVTVSSGGGGSGGGGSGGGGSMLQMAGQCSQNEYFDSLLHACIPCQLRCSSNTPPLTCQRYCNASVTNSVKGTNAHHHHHH
notes: scFv of construct 525 - G4Sx3 linker - BCMA ECD - His; Tested as HEK supernatant; also called A539; anti-GPRC5D-BCMA fusion protein
B5: BCMA-anti-CD38 fusion protein, construct #493 (BCMA ECD N-terminal to the anti-CD38 scFv, C-terminal His tag) (other)
chain: MLQMAGQCSQNEYFDSLLHACIPCQLRCSSNTPPLTCQRYCNASVTNSVKGTNAGGGGSGGGGSGGGGSGGGGSDIQMTQSPSSLSASVGDRVTITCRASQGIRSWLAWYQQKPEKAPKSLIYAASSLQSGVPSRFSGSGSGTDFTLTISSLQPEDFATYYCQQYNSYPLTFGGGTKVEIKGGGGSGGGGSGGGGSGGGGSQVQLVQSGAEVKKPGSSVKVSCKAFGGTFSSYAISWVRQAPGQGLEWMGRIIRFLGIANYAQKFQGRVTLIADKSTNTAYMELSSLRSEDTAVYYCAGEPGERDPDAVDIWGQGTMVTVSSHHHHHH
notes: also called A493; N-terminal construct
B6: BCMA-anti-CD38 fusion protein, construct #494 (BCMA ECD C-terminal to the anti-CD38 scFv, C-terminal His tag) (other)
chain: DIQMTQSPSSLSASVGDRVTITCRASQGIRSWLAWYQQKPEKAPKSLIYAASSLQSGVPSRFSGSGSGTDFTLTISSLQPEDFATYYCQQYNSYPLTFGGGTKVEIKGGGGSGGGGSGGGGSGGGGSQVQLVQSGAEVKKPGSSVKVSCKAFGGTFSSYAISWVRQAPGQGLEWMGRIIRFLGIANYAQKFQGRVTLIADKSTNTAYMELSSLRSEDTAVYYCAGEPGERDPDAVDIWGQGTMVTVSSGGGGSGGGGSGGGGSGGGGSMLQMAGQCSQNEYFDSLLHACIPCQLRCSSNTPPLTCQRYCNASVTNSVKGTNAHHHHHH
notes: also called A494
B7: anti-GPRC5D scFv, construct 523 (scFv)
scFv: QSVLTQPPSASGTPGQRVTISCSGSRSNVGGNYVFWYQQVPGATPKLLIYRSNQRPSGVPDRFAGSKSGSSASLAISGLRSEDEADYYCATWDDSLSGFVFGTGTKVTVLGSRGGGGSGGGGSGGGGSLEMAEVQLVESGGGLVKPGGSLRLSCAASGFTFSDYYMSWIRQAPGKGLEWVSYISSSGSTIYYADSVKGRFTISRDNAKNSLYLQMNSLRAEDTAVYYCARGYGKAYDQWGQGTLVTVSSHHHHHH
notes: VL-G4Sx3-VH-His; Tested as HEK293 supernatant; also called A523
B8: anti-GPRC5D scFv, construct 524 (scFv)
scFv: SSELTQDPAVSVALGQTVRITCQGDSLRSYYASWYQQKPGQAPVLVIYGKNNRPSGIPDRFSGSSSGNTASLTITGAQAEDEADYYCNSRDSSGNPPVVFGGGTKLTVLGSRGGGGSGGGGSGGGGSLEMAQVQLVESGGGLVHPGGSLRLSCAASGFTFRSHSMNWVRQAPGKGLEWVSSISSDSTYTYYADSVKGRFTISRDNAKNSLYLQMNSLRAEDTAVYYCARSGGQWKYYDYWGQGTLVTVSSHHHHHH
notes: VL-G4Sx3-VH-His; Tested as HEK293 supernatant; also called A524
B9: anti-GPRC5D scFv, construct 525 (scFv)
scFv: QSVVTQPPSMSAAPGQQVTISCSGGNSNIERNYVSWYLQLPGTAPKLVIFDNDRRPSGIPDRFSGSKSGTSATLGITGLQTGDEADYYCGTWDSSLRGWVFGGGTKLTVLGSRGGGGSGGGGSGGGGSLEMAEVQLVESGGGLIQPGGSLRLSCAASGFTFSNYAMNWVRQAPGKGLEWVSTINGRGSSTIYADSVKGRFTISRDNSKNTLYLQMNSLRAEDTATYYCARYISRGLGDSWGQGTLVTVSSHHHHHH
notes: VL-G4Sx3-VH-His; Tested as HEK293 supernatant; also called A525
B10: anti-GPRC5D scFv, construct 522 (scFv)
scFv: QSVLTQPASVSGSPGQSLTISCTGTSNDVGAYKYVSWYQQYPGKAPKLILYDVFKRPSGVSNRFSGSKSDNTASLTISGLQAEDEADYYCFSLTSSNTYVFGTGTKVTVLGSRGGGGSGGGGSGGGGSLEMAQMQLVQSGAEVKKPGASVKVSCKASGYTFNRYAITWVRQAPGQGLEWMGWISAYNGNSHYAQKLQGRVTMTTDTSTGTAYMELRRLRSDDTAVYYCARMAYDSWGQGTLVTVSSHHHHHH
notes: VL-G4Sx3-VH-His; Tested as HEK293 supernatant; also called A522

target: T1, GPRC5D expressed on transfected HEK293 / 293T cells (UniProt Q9NZD1 1-345, limits assumed); test: flow cytometry, titration of fusion protein supernatant on GPRC5D-transfected HEK293 cells, anti-His detection, % Binding
T1 construct: whole, on cells
T1 sequence (Q9NZD1 whole entry, the tested form may be a part): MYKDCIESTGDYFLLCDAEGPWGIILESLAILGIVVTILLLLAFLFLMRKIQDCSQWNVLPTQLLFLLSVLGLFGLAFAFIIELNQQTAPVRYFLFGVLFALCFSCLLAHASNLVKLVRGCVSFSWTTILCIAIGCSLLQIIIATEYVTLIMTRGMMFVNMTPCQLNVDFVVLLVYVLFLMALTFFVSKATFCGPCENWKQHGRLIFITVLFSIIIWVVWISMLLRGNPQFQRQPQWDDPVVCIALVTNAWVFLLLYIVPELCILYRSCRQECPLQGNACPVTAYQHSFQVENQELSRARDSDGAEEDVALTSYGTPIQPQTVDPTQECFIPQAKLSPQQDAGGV

For B1, which EC50 is on record?
The EC50 was 0.86 nM and 0.0287 µg/mL.

B2 was tested. Which EC50 did it give?
The EC50 was 0.0156 µg/mL and 0.469 nM.

How did the EC50 turn out when B3 was run?
Its EC50 is 0.00608 µg/mL and 0.182 nM.

B4 was tested. Which EC50 did it give?
Its EC50 is 0.0193 µg/mL and 0.572 nM.

target: T2, CD38 on Daudi cells (human, UniProt P28907 1-300); test: flow cytometry, titration of fusion protein supernatant on Daudi cells (CD38), a-BCMA-PE detection, % Binding
T2 construct: whole, on cells; Endogenous CD38 of Daudi cells
Experimental: (§1) Daudi cells were obtained from ATCC and cultured in RPMI containing 10% FCS. They were stained for BCMA using anti-BCMA-PE labeled antibody (BioLegend, #357504) and for CD38 using anti-CD38-PE labeled antibody (BioLegend, #356604), or stained with BCMA-containing fusion proteins as described herein. The cells were incubated with antibody or supernatant from A493 or A494 producing cells as follows. The Daudi cells were blocked with human Fc block (BD Biosciences, #BDB564129) for 10 minutes, washed and then diluted to 5×10e5 cells per 50 µl. For each sample, 50 µl of cells was aliquoted per well. For the direct stains, 5 µl of antibody in 50 µl was incubated with the cells for 30 minutes at 4° C. After washing with FACS buffer (FB: PBS, 1% BSA, 0.1% sodium azide), the cells were fixed with a final concentration of 2% paraformaldehyde in FB. For the BCMA fusion protein binding, 50 µl of A493 or A494 supernatant or 3x serial dilution of the supernatant in FB, was added and incubated for 30 minutes at 4° C. The cells were washed 2 times with FB and then stained with anti-His-PE antibody (R&D systems, #ICO5OP) or anti-BCMA-PE antibody (BioLegend, #357504) for 30 minutes at 4° C., the cells were pelleted and washed 2 times in FB and then fixed as above. The samples were analyzed on a BD Accuri 6 flow cytometer and analyzed using BD Accuri 6 software.

Which EC50 does the source give for B5 here?
Its EC50 is 0.0056 µg/mL and 0.165 nM.

How did the EC50 turn out when B6 was run?
The EC50 was 0.0123 µg/mL and 0.364 nM.

target: T2, CD38 on Daudi cells; test: flow cytometry, titration of fusion protein supernatant on Daudi cells (CD38), a-His-PE detection, % Binding
Experimental: as §1

For B5, which EC50 is on record?
Its EC50 is 0.00218 µg/mL and 0.0642 nM.

How did the EC50 turn out when B6 was run?
Its EC50 is 0.00315 µg/mL and 0.093 nM.

target: T1, GPRC5D expressed on transfected HEK293 …; test: flow cytometry, titration of fusion protein supernatant on GPRC5D-transfected HEK293 cells, anti-BCMA detection, % Binding

B1 was tested. Which EC50 did it give?
Its EC50 is 0.00509 µg/mL and 0.152 nM.

How did the EC50 turn out when B2 was run?
Its EC50 is 0.00553 µg/mL and 0.166 nM.

Which EC50 does the source give for B3 here?
Its EC50 is 0.00225 µg/mL and 0.067 nM.

For B4, which EC50 is on record?
Its EC50 is 0.00669 µg/mL and 0.198 nM.

target: T1, GPRC5D expressed on transfected HEK293 …; test: binding of HEK293 supernatants to GPRC5D-expressing HEK293 cells

Does B7 bind?
Result: binds

Does B8 bind?
Result: binds

Does B9 bind?
Result: binds

Does B10 bind?
Result: binds
